From patent US20240116985A1 (published 2024)
Starred links: 1 amine or outer side, 2 acyl side, 3 side chain; linkers in the order of their positions; H or OH if unused. Positions of bridges follow the written chain, without caps; N, C: chain ends. Non-standard residues stand in square brackets, D forms with d. Primed or numbered codes have the meaning given here. PyrS2″ = (S)-3-amino-1-((pent-4-en-1-yloxy)carbonyl)pyrrolidine-3-carboxylic acid (stapling residue), C=CCCCOC(=O)N1CC[C@@](N[*:1])(C(=O)[*:2])C1; RdN(3) = (R)-4-(((allyloxy)carbonyl)(methyl)amino)-2-amino-2-methylbutanoic acid, stapling residue, C=CCOC(=O)N(C)CC[C@@](C)(N[*:1])C(=O)[*:2]; RdN″ = (R)-4-(((allyloxy)carbonyl)(methyl)amino)-2-amino-2-methylbutanoic acid (stapling residue), C=CCOC(=O)N(C)CC[C@@](C)(N[*:1])C(=O)[*:2]; B5(16) = 2-amino-2-(pent-4-en-1-yl)hept-6-enoic acid = 2,2-bis(4-pentenyl)glycine (stitching residue), C=CCCCC(CCCC=C)(N[*:1])C(=O)[*:2]; B5(4) = 2,2-bis(4-pentenyl)glycine = 2-amino-2-(pent-4-en-1-yl)hept-6-enoic acid (stitching residue), C=CCCCC(CCCC=C)(N[*:1])C(=O)[*:2]; B5(5) = 2,2-bis(4-pentenyl)glycine, 2-amino-2-(pent-4-en-1-yl)hept-6-enoic acid (stitching residue), C=CCCCC(CCCC=C)(N[*:1])C(=O)[*:2]; B5(9) = 2-amino-2-(pent-4-en-1-yl)hept-6-enoic acid (2,2-bis(4-pentenyl)glycine), C=CCCCC(CCCC=C)(N[*:1])C(=O)[*:2]; B5(19) = 2-amino-2-(pent-4-en-1-yl)hept-6-enoic acid (bis(4-pentenyl)glycine), C=CCCCC(CCCC=C)(N[*:1])C(=O)[*:2]; EtGA = (S)-2-amino-3-((carboxymethyl)(ethyl)amino)propanoic acid, CCN(CC(=O)[*:3])C[C@H](N[*:1])C(=O)[*:2]; B5 = 2-amino-2-(pent-4-en-1-yl)hept-6-enoic acid, C=CCCCC(CCCC=C)(N[*:1])C(=O)[*:2]; Trp(7-F) = N[C@@H](Cc1c[nH]c2c(F)cccc12)C(=O)O; S7 = C[C@@](CCCCCC=[*:3])(N[*:1])C(=O)[*:2]; d(βAsp) = O=C(O)[C@@H](CC(=O)[*:2])N[*:1]; Bta = N[C@@H](Cc1csc2ccccc12)C(=O)O; αAllylPro = C=CC[C@@]1(C(=O)O)CCCN1; tBuAla = CC(C)(C)C[C@H](N)C(=O)O; 3Thi = N[C@@H](Cc1ccsc1)C(=O)O; S8 = C=CCCCCCC[C@](C)(N)C(=O)O; 34ClF = not defined here

T1: B-cat-Halo (beta-catenin HaloTag construct expressed in HEK293 cells) (UniProt P35222 1-781)
T1 sequence (looked up): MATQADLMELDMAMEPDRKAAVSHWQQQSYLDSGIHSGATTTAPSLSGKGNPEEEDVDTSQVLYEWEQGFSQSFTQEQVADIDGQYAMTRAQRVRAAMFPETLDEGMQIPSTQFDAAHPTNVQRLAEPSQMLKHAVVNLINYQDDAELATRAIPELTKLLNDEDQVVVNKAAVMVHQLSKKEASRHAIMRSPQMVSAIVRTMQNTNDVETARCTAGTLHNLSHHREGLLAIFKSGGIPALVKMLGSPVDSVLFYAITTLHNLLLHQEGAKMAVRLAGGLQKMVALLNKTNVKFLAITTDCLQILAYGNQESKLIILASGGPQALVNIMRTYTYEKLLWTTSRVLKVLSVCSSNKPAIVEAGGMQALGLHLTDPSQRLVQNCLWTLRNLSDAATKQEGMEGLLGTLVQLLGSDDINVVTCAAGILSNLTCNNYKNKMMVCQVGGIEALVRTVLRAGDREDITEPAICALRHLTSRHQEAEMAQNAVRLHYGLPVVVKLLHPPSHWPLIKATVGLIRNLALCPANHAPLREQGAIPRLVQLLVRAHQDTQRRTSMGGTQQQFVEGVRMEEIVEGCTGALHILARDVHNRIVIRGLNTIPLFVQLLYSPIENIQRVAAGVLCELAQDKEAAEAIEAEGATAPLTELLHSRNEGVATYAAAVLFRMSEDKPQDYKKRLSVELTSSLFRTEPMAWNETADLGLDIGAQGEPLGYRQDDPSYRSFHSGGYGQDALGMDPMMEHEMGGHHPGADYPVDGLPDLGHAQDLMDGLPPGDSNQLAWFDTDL

T2: full-length beta-Catenin (Uniprot ID P35222) (Homo sapiens (Human), UniProt P35222 1-781)
T2 construct: The assay protocol says 'full-length beta-Catenin (Uniprot ID P35222)'; also called bCat; B-Catenin
T2 sequence: T1 sequence (looked up)

T3: full-length beta-Catenin (Uniprot ID P35222) (Homo sapiens (Human), UniProt P35222 1-781)
T3 construct: also called bCat; B-Catenin
T3 sequence: T1 sequence (looked up)

B1: I-2182 (peptide)
peptide: Ac-[αAllylPro]D[tBuAla][B5(4)]DDAAFN[PyrS2″][3Thi][34ClF]Q-NH2
modifications: staple 1-4, 4-11; reading uncertain; also: printed as Ac-PL3-Asp-Npg-B5-Asp-Asp-Ala-Ala-Phe-Asn-PyrS2-3Thi-34C1F-Gln-NH2
B2: I-166 (peptide)
peptide: Ac-[αAllylPro]DA[B5(16)]DEAAFV[S8]F[Trp(7-F)]Q-NH2
modifications: staple 1-4, 4-11
notes: also called Ac-PL3-Asp-Ala-B5-Asp-Glu-Ala-Ala-Phe-Val-S8-Phe-7FW-Gln-NH2
B3: I-152 (peptide)
peptide: Ac-ADI[RdN″]DEAAFA[S7]FWH-NH2
modifications: staple 4-11
notes: also called Ac-Ala-Asp-Ile-RdN-Asp-Glu-Ala-Ala-Phe-Ala-S7-Phe-Trp-His-NH2
B4: I-153 (peptide)
peptide: Ac-ADI[RdN(3)]DEAAFQ[S7]FWA-NH2
modifications: staple 4-11
notes: also called Ac-Ala-Asp-Ile-RdN-Asp-Glu-Ala-Ala-Phe-Gln-S7-Phe-Trp-Ala-NH2
B5: I-155 (peptide)
peptide: ADIXDEAAFAXFWA
modifications: not fully specified; N-terminal acetyl (Ac); RdN at 4 and S7 at 11 (staple RdN-S7 by olefin metathesis); C-terminal amide (NH2)
notes: also called Ac-Ala-Asp-Ile-RdN-Asp-Glu-Ala-Ala-Phe-Ala-S7-Phe-Trp-Ala-NH2
B6: I-174 (peptide)
peptide: Ac-[αAllylPro]DI[B5(5)]DDAAFQ[S8]FWH-NH2
modifications: staple 1-4, 4-11
notes: also called Ac-PL3-Asp-Ile-B5-Asp-Asp-Ala-Ala-Phe-Gln-S8-Phe-Trp-His-NH2
B7: I-178 (peptide)
peptide: Ac-[αAllylPro]DA[B5(19)]DEAAFQ[S8]FWH-NH2
modifications: staple 1-4, 4-11
notes: also called Ac-PL3-Asp-Ala-B5-Asp-Glu-Ala-Ala-Phe-Gln-S8-Phe-Trp-His-NH2
B8: I-176 (peptide)
peptide: Ac-[αAllylPro]DI[B5(5)]DEAAFV[S8]FWH-NH2
modifications: staple 1-4, 4-11
notes: also called Ac-PL3-Asp-Ile-B5-Asp-Glu-Ala-Ala-Phe-Val-S8-Phe-Trp-His-NH2
B9: I-173 (peptide)
peptide: Ac-[αAllylPro]DA[B5]D[EtGA]AAFV[S8]FWQ-NH2
modifications: staple 1-4, 4-11; not fully specified
notes: also called Ac-PL3-Asp-Ala-B5-Asp-EtGA-Ala-Ala-Phe-Val-S8-Phe-Trp-Gln-NH2
B10: I-172 (peptide)
peptide: Ac-[αAllylPro]DA[B5(4)]D[EtGA]AAFV[S8]FWQ-NH2
modifications: staple 1-4, 4-11; not fully specified
notes: as for B9
B11: I-180 (peptide)
peptide: XDIXDEAAFQXFWQ
modifications: not fully specified; N-terminal acetyl (Ac); PL3 at 1, B5 at 4, S8 at 11 (staples PL3-B5 and B5-S8 by olefin metathesis); C-terminal amide (NH2)
notes: also called Ac-PL3-Asp-Ile-B5-Asp-Glu-Ala-Ala-Phe-Gln-S8-Phe-Trp-Gln-NH2
B12: I-661 (peptide)
peptide: XDIXDEASFQXFXQ
modifications: not fully specified; Ac-PL3-Asp-Ile-B5-Asp-Glu-Ala-Ser-Phe-Gln-S8-Phe-BztA-Gln-NH2; N-terminal acetyl, C-terminal amide; PL3(1), B5(4), S8(11) stapled by olefin metathesis (1-4 and 4-11); BztA at 13
notes: Stapled peptide
B13: I-659 (peptide)
peptide: XDIXDEALFQXFXQ
modifications: not fully specified; Ac-PL3-Asp-Ile-B5-Asp-Glu-Ala-Leu-Phe-Gln-S8-Phe-BztA-Gln-NH2; N-terminal acetyl, C-terminal amide; PL3(1), B5(4), S8(11) stapled by olefin metathesis (1-4 and 4-11); BztA at 13
notes: Stapled peptide

Biological target: T1, B-cat-Halo (beta-catenin HaloTag …)
Assay: cell-based or functional assay

NanoBRET Abs IC50 [nM]	Binder
11100	B1

Biological target: T2, full-length beta-Catenin (Uniprot ID …)
Assay: fluorescence polarization competition; full-length beta-catenin, competitor 5FAM-TCF4(10-53) probe
Procedure, shortened: (§1)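 Data fitted to 1:1 binding model with hill slope from duplicate reads taken after 60 minutes at 20° C. in the dark.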

IC50 [nM]	Binder
2160	B2
5000	B3
2140	B4
5000	B5
1760	B6
1630	B7
1990	B8
3120	B9
5000	B10
56	B11

Biological target: T3, full-length beta-Catenin (Uniprot ID …)
Assay: as above
Procedure, shortened: as §1

IC50 [nM]	Binder
451	Ac-[αAllylPro][d(βAsp)]I[B5(9)]DEAAFQ[S8]F[Bta]Q-NH2 (staple 1-4, 4-11, Stapled peptide) [I-669]
675	Ac-[αAllylPro][d(βAsp)]I[B5(9)]DEAAFQ[S8]F[Bta]Q-NH2 (staple 1-4, 4-11, Stapled peptide) [I-668]
996	Ac-[αAllylPro]DI[B5(9)]DEAWFQ[S8]F[Bta]Q-NH2 (staple 1-4, 4-11, Stapled peptide) [I-664]
45	B12
430	B13
923	Ac-[αAllylPro]DI[B5(9)]DEAWFQ[S8]F[Bta]Q-NH2 (staple 1-4, 4-11, Stapled peptide) [I-665]
183	Ac-[αAllylPro]DI[B5(16)]DEWAFQ[S8]F[Bta]Q-NH2 (staple 1-4, 4-11, Stapled peptide) [I-655]
72	Ac-[αAllylPro]DI[B5(16)]DESAFQ[S8]F[Bta]Q-NH2 (staple 1-4, 4-11, Stapled peptide) [I-652]
